Data on one molecule can be found in patent US5874272A, “Inosine-guanosine kinase” (Kyowa Hakko Kogyo Co., Ltd., priority 1998, dated 1999).

Substrate in series [1]: Nc1nc2c(ncn2[C@@H]2O[C@H](CO)[C@@H](O)[C@H]2O)c(=O)[nH]1
As to the kind of experiment: Km value determination. Type of series: biochemical, Escherichia coli. The conditions noted are these: other: 2 mM ATP, 10 mM MgSO4, 300 mM KCl, 0.1M HEPES buffer (pH 7.2).

Substrate in series [2]: OC[C@H]1O[C@@H](n2cnc3c(O)ncnc32)[C@H](O)[C@@H]1O
Nature of the series: Km value determination. It is filed as biochemical, Escherichia coli. The settings on record: other: 2 mM ATP, 10 mM MgSO4, 300 mM KCl, 0.1M HEPES buffer (pH 7.2).

Series [3] can be described thus: pH, temperature and storage stability of the enzyme (residual activity). Type of series: physicochemical, Escherichia coli. How it is done: This enzyme is treated at 4° C. for 16 hours in an aqueous solution containing 50 mM buffer (CHES; pH 10.0-9.0, TAPS; pH 8.2, HEPES; pH 8.3-7.3 or PIPES; pH 6.6) and 5 mM […] under both conditions in the absence of KCl and in the presence of 250 mM KCl. After the treatment, the activity is determined. Where treated in a pH range of 6.6 to 9.0, the treated enzyme maintains the residual activity of 90% or more than the activity of intact standard enzyme and stably keeps its activity in a pH range of 6.6 to 9.0. The addition of KCl accelerates storage stability.
A reaction solution composed of 20% glycerol, 50 mM Tris-hydrochloride buffer (pH 8), 5 mM β-mercaptoethanol and 100 mM NaCl is contacted with inosine-guanosine kinase in a concentration of about 10 μg protein/ml and treated at a temperature of 26° to 50° C. for 15 minutes to determine the residual activity at each temperature. As the result, since treatment at 40° C. or lower inactivates the enzyme by only 20% or less, the enzyme is stable up to 40° C. In contrast, the activity is rapidly lost by treatment at 50° C.
After 6 g of the -20° C.-stored cells which had been obtained in (6) was suspended in 24 ml of purification buffer [20% glycerol, 50 mM Tris-hydrochloride buffer (pH 8) and 5 mM β-mercaptoethanol], the suspension was disrupted with a homogenizer (manufactured by Brown Biotech Co., Ltd., glass bead diameter of 0.1 mm). The homogenate was centrifuged to give about 20 ml of the supernatant. Protamine sulfate was added to the supernatant in a final concentration of 0.4% followed by centrifugation. Thus high molecular nucleic acid components were removed as precipitates. The resulting supernatant was passed through Sephadex G-50 column which had been previously equilibrated with the purification buffer. The column was eluted with the purification buffer to give about 30 ml of desalted active fraction. After the fraction was passed through DEAE Sepharose column which had been previously equilibrated with the purification buffer, 60 ml of the purification buffer containing 0.1M NaCl was added thereto. Then the desired enzyme was eluted with 200 ml of the purification buffer having an NaCl linear density slope of 0.1M to 0.6M. From the active fractions eluted, 3 ml of the fraction having the highest enzyme concentration was collected. This active fraction was passed through Sephacryl S-200 column and eluted with the purification buffer containing 0.1M NaCl. By gel filtration, the active fraction was collected. Finally 10 ml of purified enzyme (1.4 μg protein/ml) was obtained. This purified enzyme was analyzed by SDS-polyacrylamide electrophoresis but no impurity was detected. The enzyme is stably stored at -20° C. in the purification buffer containing 0.1M NaCl.

A short description of series [4]: Optimum pH and optimum temperature of the enzyme activity. It is filed as biochemical, Escherichia coli. The conditions noted are these: 30° C., 20 minutes; PIPES, HEPES, TAPS, CHES buffers 100 mM. How it is done: The activity of the inosine-guanosine kinase obtained is determined as follows. A reaction solution (hereafter referred to as reaction solution a) having a composition of 100 mM HEPES buffer (pH 7.2), 10 mM MgSO4, 50 mM KCl, 1 mM ATP and 1 mM inosine is brought into contact with the inosine-guanosine […] During the course of reaction, a part of the reaction solution is subjected to sampling intermittently. After the reaction solution is diluted to 1/20 with 0.2M NaH2 PO4 (adjusted the pH to 2.6 with H3 PO4) to stop the reaction, an amount of 5'-IMP in the stopped reaction solution is quantitatively determined by HPLC. Analysis by HPLC is made by using 0.2M NaH2 PO4 (pH 2.6) at a flow rate of 1 ml/min. as an eluting solution and Asahipak GS-320H (manufactured by Asahi Chemical Co., Ltd.) as a column. Detection of components was made by the absorbance at UV absorbance at 254 nm as an index. Quantitative determination was made by comparing absorbancy with that of the standard. […]
In the method for determination of inosine-guanosine kinase activity described above, the activity is determined by varying the temperature of 0° to 50° C. and 31° to 41° C. […]

Usually Km stands for the concentration of substrate that gives half-maximal velocity.

B1: inosine-guanosine kinase (Escherichia coli K-12) (protein)
chain: MKFPGKRKSKHYFPVNARDPLLQQFQPENETSAAWVVGIDQTLVDIEAKVDDEFIERYGLSAGHSLVIEDDVAEALYQELKQKNLITHQFAGGTIGNTMHNYSVLADDRSVLLGVMCSNIEIGSYAYRYLCNTSSRTDLNYLQGVDGPIGRCFTLIGESGERTFAISPGHMNQLRAESIPEDVIAGASALVLTSYLVRCKPGEPMPEATMKAIEYAKKYNVPVVLTLGTKFVIAENPQWWQQFLKDHVSILAMNEDEAEALTGESDPLLASDKALDWVDLVLCTAGPIGLYMAGFTEDEAKRKTQHPLLPGAIAEFNQYEFSRAMRHKDCQNPLRVYSHIAPYMGGPEKIMNTNGAGDGALAALLHDITANSYHRSNVPNSSKHKFTWLTYSSLAQVCKYANRVSYQVLNQHSPRLTRGLPEREDSLEESYWDR
notes: made in house; host or cells: Escherichia coli
In the case of B1, the results for the Michaelis constant (Km) in the series “Km value determination [1]” and in “Km value determination [2]” were 6.1 µM and 2100 µM, respectively. Also, in series [3] (4° C., 16 hours, pH range of 6.6 to 9.0, with or without 250 mM KCl, versus intact standard enzyme), the “residual activity after pH treatment” value is reported as not below 90%. Besides, the “temperature up to which the enzyme is stable” value in series [3] (15 minutes treatment, pH 8) is “up to 40 °C”. The “storage stability (in words)” value in series [3] (-20° C. in purification buffer containing 0.1M NaCl) is recorded as “stably stored”. Besides, in series [3] (treatment at 40° C. or lower, 15 minutes, pH 8), the “inactivation by heat treatment” value is given as not above 20%. Further, the “activity after heat treatment (in words)” value in series [3] (treatment at 50° C., 15 minutes) was “rapidly lost”. Besides, the “optimum pH” value in series [4] is recorded as 6.9-8.2.
